Publication PMC6391106, “Hyperfunctional complement C3 promotes C5-dependent atypical hemolytic uremic syndrome in mice” (The Journal of Clinical Investigation, 2019)

B1: murine C3b Asn1115 (complex)
chain 1: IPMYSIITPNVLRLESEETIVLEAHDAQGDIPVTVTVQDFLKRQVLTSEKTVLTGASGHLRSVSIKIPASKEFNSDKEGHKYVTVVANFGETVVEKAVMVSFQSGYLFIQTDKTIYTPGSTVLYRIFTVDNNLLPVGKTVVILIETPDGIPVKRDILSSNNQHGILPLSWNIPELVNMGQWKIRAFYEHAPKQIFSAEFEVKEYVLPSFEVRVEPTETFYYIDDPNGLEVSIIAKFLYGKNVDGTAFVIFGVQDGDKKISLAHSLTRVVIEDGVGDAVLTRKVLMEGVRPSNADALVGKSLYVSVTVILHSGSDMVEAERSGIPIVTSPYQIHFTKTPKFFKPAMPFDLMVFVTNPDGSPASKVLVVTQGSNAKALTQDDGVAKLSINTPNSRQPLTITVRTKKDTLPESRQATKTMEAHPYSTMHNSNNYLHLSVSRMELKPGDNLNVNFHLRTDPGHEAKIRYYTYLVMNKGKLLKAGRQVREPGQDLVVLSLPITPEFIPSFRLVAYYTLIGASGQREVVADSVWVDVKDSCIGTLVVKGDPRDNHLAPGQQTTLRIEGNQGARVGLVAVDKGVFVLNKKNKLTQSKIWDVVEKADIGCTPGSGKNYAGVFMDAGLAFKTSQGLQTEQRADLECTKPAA
chain 2: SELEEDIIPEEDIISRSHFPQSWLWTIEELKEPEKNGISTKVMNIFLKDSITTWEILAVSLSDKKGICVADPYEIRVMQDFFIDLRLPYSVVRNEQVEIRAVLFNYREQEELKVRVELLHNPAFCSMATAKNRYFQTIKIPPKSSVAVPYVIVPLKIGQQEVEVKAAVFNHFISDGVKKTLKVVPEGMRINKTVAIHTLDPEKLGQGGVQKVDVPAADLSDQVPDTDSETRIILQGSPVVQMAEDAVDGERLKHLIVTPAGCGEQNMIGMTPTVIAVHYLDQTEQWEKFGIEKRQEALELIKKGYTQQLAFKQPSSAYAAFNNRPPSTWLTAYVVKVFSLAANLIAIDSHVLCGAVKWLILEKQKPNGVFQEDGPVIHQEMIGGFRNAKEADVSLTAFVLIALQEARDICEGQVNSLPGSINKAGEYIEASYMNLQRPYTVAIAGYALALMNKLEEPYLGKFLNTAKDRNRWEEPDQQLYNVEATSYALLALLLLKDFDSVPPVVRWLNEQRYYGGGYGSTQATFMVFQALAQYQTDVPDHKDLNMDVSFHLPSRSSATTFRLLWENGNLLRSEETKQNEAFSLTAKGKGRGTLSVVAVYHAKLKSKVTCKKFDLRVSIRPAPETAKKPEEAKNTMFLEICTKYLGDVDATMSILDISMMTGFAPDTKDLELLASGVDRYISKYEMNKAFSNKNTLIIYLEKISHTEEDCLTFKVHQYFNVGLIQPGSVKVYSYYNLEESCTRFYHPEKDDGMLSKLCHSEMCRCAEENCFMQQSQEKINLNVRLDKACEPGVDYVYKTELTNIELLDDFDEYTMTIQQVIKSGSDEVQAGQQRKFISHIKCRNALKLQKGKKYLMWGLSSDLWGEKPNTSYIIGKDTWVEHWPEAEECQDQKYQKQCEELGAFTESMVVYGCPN
modifications: C3b made from plasma-purified C3 by factor B/factor D cleavage (C3a released); beta and alpha' chains disulfide-linked; thioester (Cys1010-Gln1013) hydrolysed; N-glycosylated; amine-coupled to CM5 …

How the values were obtained:
Test in all cases: SPR; BIAcore S200; murine C3b (WT or Asn1115) amine coupled to a CM5 chip (930 ± 10 RU); analytes in 2-fold dilution series in HBST (10 mM HEPES, 150 mM NaCl, 0.005% Tween-20, pH 7.4), 30 μl/min for 200 s; steady-state model
Conditions in all cases: both partners purified
murine C3b Asn1115 = molecular target: B1
murine C3b Asn1115, sequence (P01027 749-1663, change not shown, chain 1 of 2): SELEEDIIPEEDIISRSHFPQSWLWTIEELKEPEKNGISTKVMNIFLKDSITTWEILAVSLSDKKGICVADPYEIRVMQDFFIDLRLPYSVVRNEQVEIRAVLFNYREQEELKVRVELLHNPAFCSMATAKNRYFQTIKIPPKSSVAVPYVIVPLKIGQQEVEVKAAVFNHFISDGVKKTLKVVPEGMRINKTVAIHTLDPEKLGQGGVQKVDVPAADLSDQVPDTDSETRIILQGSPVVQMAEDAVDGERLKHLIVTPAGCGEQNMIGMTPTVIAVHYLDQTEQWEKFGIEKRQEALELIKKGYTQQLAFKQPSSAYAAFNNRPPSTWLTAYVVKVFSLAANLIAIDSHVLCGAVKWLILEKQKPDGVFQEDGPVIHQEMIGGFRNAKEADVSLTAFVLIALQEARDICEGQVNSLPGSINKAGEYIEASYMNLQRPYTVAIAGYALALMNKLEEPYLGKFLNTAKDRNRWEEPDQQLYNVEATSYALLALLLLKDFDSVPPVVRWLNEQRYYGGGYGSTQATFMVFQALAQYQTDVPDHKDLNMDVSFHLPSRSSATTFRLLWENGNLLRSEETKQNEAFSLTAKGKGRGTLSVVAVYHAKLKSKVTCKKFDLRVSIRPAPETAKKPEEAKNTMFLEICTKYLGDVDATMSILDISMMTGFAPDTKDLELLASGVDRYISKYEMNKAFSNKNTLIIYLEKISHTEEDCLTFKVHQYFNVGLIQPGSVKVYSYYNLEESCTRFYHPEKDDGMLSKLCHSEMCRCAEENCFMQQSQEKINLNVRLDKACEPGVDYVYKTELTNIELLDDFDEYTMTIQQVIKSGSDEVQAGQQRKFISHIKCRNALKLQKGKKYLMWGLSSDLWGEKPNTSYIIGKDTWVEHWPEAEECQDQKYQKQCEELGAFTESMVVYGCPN
murine C3b Asn1115, sequence (P01027 749-1663 D1115N, chain 2 of 2): as the sequence (P01027 749-1663, change not shown, chain 1 of 2) above, with D367N counted along it

[1] = molecular target: T1, recombinant murine FH SCRs 1–5 (mouse)
T1 construct: mouse complement factor H, short consensus repeats 1–5; also called recombinant mouse FH1–5; mFH SCRs 1–5; source: recombinant

[2] = molecular target: T2, recombinant murine Crry SCRs 1–5 (mouse)
T2 construct: mouse Crry (complement receptor 1-related protein), short consensus repeats 1–5; also called recombinant mouse Crry; mouse Crry; source: recombinant
T2 sequence (P01027 749-1663, change not shown, chain 1 of 2): as the sequence (P01027 749-1663, change not shown, chain 1 of 2) above
T2 sequence (P01027 749-1663 D1115N, chain 2 of 2): as the sequence (P01027 749-1663, change not shown, chain 1 of 2) above, with D367N counted along it

Row | Kd (murine C3b Asn1115) [µM] | Kd [1] [µM] | Kd [2] [µM] | Binder
1 | 3.7 | – | – | full-length mouse serum-derived FH (natural protein, UniProt P06909 19-1234, looked up, mouse complement factor H, full length, from serum; also called murine FH; mouse FH) EDCKGPPPRENSEILSGSWSEQLYPEGTQATYKCRPGYRTLGTIVKVCKNGKWVASNPSRICRKKPCGHPGDTPFGSFRLAVGSQFEFGAKVVYTCDDGYQLLGEIDYRECGADGWINDIPLCEVVKCLPVTELENGRIVSGAAETDQEYYFGQVVRFECNSGFKIEGHKEIHCSENGLWSNEKPRCVEILCTPPRVENGDGINVKPVYKENERYHYKCKHGYVPKERGDAVCTGSGWSSQPFCEEKRCSPPYILNGIYTPHRIIHRSDDEIRYECNYGFYPVTGSTVSKCTPTGWIPVPRCTLKPCEFPQFKYGRLYYEESLRPNFPVSIGNKYSYKCDNGFSPPSGYSWDYLRCTAQGWEPEVPCVRKCVFHYVENGDSAYWEKVYVQGQSLKVQCYNGYSLQNGQDTMTCTENGWSPPPKCIRIKTCSASDIHIDNGFLSESSSIYALNRETSYRCKQGYVTNTGEISGSITCLQNGWSPQPSCIKSCDMPVFENSITKNTRTWFKLNDKLDYECLVGFENEYKHTKGSITCTYYGWSDTPSCYERECSVPTLDRKLVVSPRKEKYRVGDLLEFSCHSGHRVGPDSVQCYHFGWSPGFPTCKGQVASCAPPLEILNGEINGAKKVEYSHGEVVKYDCKPRFLLKGPNKIQCVDGNWTTLPVCIEEERTCGDIPELEHGSAKCSVPPYHHGDSVEFICEENFTMIGHGSVSCISGKWTQLPKCVATDQLEKCRVLKSTGIEAIKPKLTEFTHNSTMDYKCRDKQEYERSICINGKWDPEPNCTSKTSCPPPPQIPNTQVIETTVKYLDGEKLSVLCQDNYLTQDSEEMVCKDGRWQSLPRCIEKIPCSQPPTIEHGSINLPRSSEERRDSIESSSHEHGTTFSYVCDDGFRIPEENRITCYMGKWSTPPRCVGLPCGPPPSIPLGTVSLELESYQHGEEVTYHCSTGFGIDGPAFIICEGGKWSDPPKCIKTDCDVLPTVKNAIIRGKSKKSYRTGEQVTFRCQSPYQMNGSDTVTCVNSRWIGQPVCKDNSCVDPPHVPNATIVTRTKNKYLHGDRVRYECNKPLELFGQVEVMCENGIWTEKPKCRDSTGKCGPPPPIDNGDITSLSLPVYEPLSSVEYQCQKYYLLKGKKTITCRNGKWSEPPTCLHACVIPENIMESHNIILKWRHTEKIYSHSGEDIEFGCKYGYYKARDSPPFRTKCINGTINYPTCV
2 | – | 3.1 | 3.5 | B1
